“And” between values parts separate entries of the source, which are not always exact repeats. Identical values can stand only once.
Details: Saccharomyces cerevisiae (strain ATCC 204508 / S288c), 25 °C, GdnHCl, reversible: yes, whole UniProt chain shown
[1] = pH 7, Fluorescence, Tris-HCl 50 mM, NaCl 0.2 M, transition: 2
[2] = pH 7.5, Fluorescence, Tris-HCl 50 mM, NaCl 0.2 M, transition: 2
[3] = pH 7.5, Fluorescence, Tris-phosphate 50 mM, NaCl 0.2 M, transition: 2
[4] = pH 8, CD, Na2HPO4-KH2PO4 50 mM, NaCl 0.15 M, transition: 3
[5] = pH 8, Fluorescence, Na2HPO4-KH2PO4 50 mM, NaCl 0.15 M, transition: 2
[6] = pH 8, Fluorescence, Tris-HCl 50 mM, NaCl 0.2 M, transition: 2
[7] = pH 8, Fluorescence, Tris-HCl 50 mM, NaCl 0.2 M, transition: 3
[8] = pH 8.4, Fluorescence, Tris-HCl 50 mM, NaCl 0.2 M, transition: 2
[9] = pH 8.5, Fluorescence, Na2HPO4-KH2PO4 50 mM, NaCl 0.15 M, transition: 2

B1: Transcriptional regulator URE2 wild type, P23202 (protein)
chain: MMNNNGNQVSNLSNALRQVNIGNRNSNTTTDQSNINFEFSTGVNNNNNNNSSSNNNNVQNNNSGRNGSQNNDNENNIKNTLEQHRQQQQAFSDMSHVEYSRITKFFQEQPLEGYTLFSHRSAPNGFKVAIVLSELGFHYNTIFLDFNLGEHRAPEFVSVNPNARVPALIDHGMDNLSIWESGAILLHLVNKYYKETGNPLLWSDDLADQSQINAWLFFQTSGHAPMIGQALHFRYFHSQKIASAVERYTDEVRRVYGVVEMALAERREALVMELDTENAAAYSAGTTPMSQSRFFDYPVWLVGDKLTIADLAFVPWNNVVDRIGINIKIEFPEVYKWTKHMMRRPAVIKALRGE
[1]
  denaturant m value: 3.2 kcal/mol/M
  denaturant midpoint (higher = more stable): 2.4 M
  unfolding free energy: 17 kcal/mol
pH 7, Fluorescence, Tris-HCl 50 mM, NaCl 0.2 M, transition: 3
  unfolding free energy: 7.9 kcal/mol
[2]
  denaturant m value: 3.6 kcal/mol/M
  denaturant midpoint (higher = more stable): 2.64 M
  unfolding free energy: 20 kcal/mol
pH 7.5, Fluorescence, Tris-HCl 50 mM, NaCl 0.2 M, transition: 3
  unfolding free energy: 8.8 kcal/mol and 8.5 kcal/mol and 8.9 kcal/mol
[3]
  denaturant m value: 4.8 kcal/mol/M and 5.2 kcal/mol/M
  denaturant midpoint (higher = more stable): 2.66 M and 2.53 M
  unfolding free energy: 21 kcal/mol and 22 kcal/mol
pH 7.5, Fluorescence, Tris-phosphate 50 mM, NaCl 0.2 M, transition: 3
  unfolding free energy: 9 kcal/mol
[4]
  denaturant midpoint (higher = more stable): 2.33 M and 3.54 M
  unfolding free energy: 7 kcal/mol
[5]
  denaturant m value: 4 kcal/mol/M
  denaturant midpoint (higher = more stable): 2.48 M
  unfolding free energy: 19 kcal/mol
pH 8, Fluorescence, Na2HPO4-KH2PO4 50 mM, NaCl 0.15 M, transition: 3
  unfolding free energy: 6.9 kcal/mol and 6.8 kcal/mol
[6]
  denaturant m value: 3 kcal/mol/M and 4.1 kcal/mol/M and 6 kcal/mol/M
  denaturant midpoint (higher = more stable): 3 M and 2.84 M and 2.66 M
  unfolding free energy: 16 kcal/mol and 19 kcal/mol
[7]
  denaturant m value: 8 kcal/mol/M and 3 kcal/mol/M
  denaturant midpoint (higher = more stable): 3.23 M and 2.67 M
  unfolding free energy: 8 kcal/mol
[8]
  denaturant m value: 5 kcal/mol/M and 5.5 kcal/mol/M and 6.8 kcal/mol/M
  denaturant midpoint (higher = more stable): 3.06 M and 2.95 M and 2.93 M
  unfolding free energy: 23 kcal/mol and 24 kcal/mol
[9]
  denaturant m value: 5 kcal/mol/M
  denaturant midpoint (higher = more stable): 2.57 M
  unfolding free energy: 22 kcal/mol
pH 8.5, Fluorescence, Na2HPO4-KH2PO4 50 mM, NaCl 0.15 M, transition: 3
  unfolding free energy: 7.6 kcal/mol and 7.4 kcal/mol and 7.5 kcal/mol
